Reference: US20100278829A1, “DUAL INHIBITION OF IMMUNOPHILIN/CYCLOPHILIN FAMILY MEMBERS AND EMMPRIN IMMUNOGLOBULIN RECEPTOR SUPERFAMILY MEMBERS” (priority 2009, published 2010)
Where “and” joins values, the source holds several entries; their conditions need not be identical. Equal values may be shown once. Blank lines part the entries; values can stand above or below the substance they belong to.

Columns and labels:
[1] = target: T1, CD147 Pro211 (Homo sapiens, UniProt P35613); assay: ZZ-exchange NMR of CypA-mediated peptidyl-prolyl isomerization of CD147; type: biochemical; conditions: for kex (s−1), apparent catalytic exchange rate: [CD147^94-214]=0.5 mM
T1 construct: both containing 0.5 mM ^15N-CD147^94-214 at 25° C; made in house
T1 sequence (P35613 94-214 isoform P35613-2): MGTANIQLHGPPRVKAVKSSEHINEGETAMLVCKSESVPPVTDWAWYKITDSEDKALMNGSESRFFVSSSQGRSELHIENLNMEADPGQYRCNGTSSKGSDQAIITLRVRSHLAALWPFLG
Protocol: For ZZ-exchange experiments, the pulse scheme of Farrow et al. was employed with a selective adiabatic CHIRP pulse applied in the center of the mixing period for water suppression. (69) Two data sets were collected at 720 MHz on two samples with either 0.01 or 0.05 mM CypA and both containing 0.5 mM ^15N-CD147^94-214 at 25° C. and analyzed as previously described to calculate the apparent cis/trans exchange rate (kex). […] Equations (1a), (1b), (1c), and (1d) below were used to simultaneously fit the auto trans peak (Itt), the auto cis peak (Icc), the trans→cis exchange peak (Itc) and the cis→trans exchange peak (Ict), respectively, as a function of τm·Itt(0) and Icc(0) are the initial intensities of the trans and cis auto peaks, respectively, a11=R1t+ktc, a22=R1c+kct, a21=−ktc, and a12=−kct. Finally, under these conditions, ktc and kct can be recast as a function of their free Keq (Pcis/Ptrans=0.33/0.67), and thus, ktc=0.33 kex and kct=0.67 kex.
GraphPad Prism version 4.0 (GraphPad Software Inc., San Diego, Calif.) was used to simultaneously fit all resolvable peaks within CD147 residues 207-214.
ZZ-exchange was used to determine the apparent catalytic exchange rate of CypA-mediated peptidyl-prolyl isomerization of CD147 Pro211, providing a quantitative analysis of the active CypA/CD147 complex (FIG. 49). Specifically, two ZZ-exchange experiments were collected using identical concentrations of 0.5 mM 15N-CD147^94-214 but with two substoichiometric concentrations of the enzyme (i.e., catalytic concentrations) of 0.01 mM (FIG. 49A) and 0.05 mM (FIG. 49B) CypA. Under each condition, the apparent exchange rate (kex), which is the sum of the apparent cis-trans (i.e., kct) and […] (i.e., ktc) catalytic rates, was determined to quantify the rate enhancement of CypA-mediated catalysis (Table 1).

[2] = system: Human primary skin keratinocytes (Hka); assay: Cytokine stimulation of Hka, ECL and qRT-PCR readout; type: cell-based
Protocol: Cell stimulation. Primary T-cells, H9 cells and Th22 cells (1×10^6 cells/ml) were stimulated with PMA (1 ng/ml) and lonomycin (500 ng/ml) for 18 hrs at 37° C. HKa were stimulated with TNFα (1 ng/ml), TNFα (10 ng/ml)+PEG sTNF-RI (10 μg/ml), IL-1β (10 ng/ml), IL-1β ng/ml+IL-1ra 10 µg/ml, IL-1β ng /ml+TNFα 10 ng/ml and IL-32α or IL-32β for 24 hrs. Hka were stimulated with activated H9 and primary T-cells for 24 hrs at 37° C. PEGsTNF-RI and IL-1ra was obtained from Amgen (Thousand Oaks, Calif.).
ECL. A polyclonal antibody produced in rabbits against recombinant IL-32γ was used for ECL. IgG was prepared with Econo-Pac and then affinity purified through IL-32-immobilized agarose bead column of Affi-gel 15. An aliquot of the affinity purified anti-IL-32γ antibody was labeled with biotin and another aliquot with ruthenium according to the manufacturer's instructions (BioVeris, Gaithersburg, Md.). […] The liquid-phase ECL method was used to measure TNFα, IL-1β, IL-6, IL-8 and IL-32γ in human primary keratinocytes cell culture media and cell lysates in 0.5% Triton-X. The amount of ECL was determined by using an Origen Analyzer (BioVeris).
Quantitative real-time quantitative polymerase chain reaction (TaqMan) analysis (qRT-PCR). […] The amount of cDNA added to each reaction was held to a relatively narrow range, determined by the measurement of 18S RNA. […]

kct (cis→trans catalytic rate) ([1]; CypA:CD147 ratio of 1:10): 40 s⁻¹ | ktc (trans→cis catalytic rate) ([1]; CypA:CD147 ratio of 1:10): 20 s⁻¹ | kex (s−1), apparent catalytic exchange rate ([1]; [CypA]=0.01 mM, 25° C.): 9.6 ± 3.5 s⁻¹ | kex (s−1), apparent catalytic exchange rate ([1]; [CypA]=0.05 mM, 25° C.): 44.3 ± 8.1 s⁻¹ | kex extrapolated to the 1:1 / fully bound complex ([1]; extrapolated with the peptide Kd, 25° C.): ~6000 s⁻¹ and 4000 to 4800 s⁻¹ | kex (=kct+ktc) ([1]; substoichiometric CypA concentrations): ~60 s⁻¹
Substance: CypA: recombinant cyclophilin A, peptidyl-prolyl isomerase enzyme ligand of CD147

Substance: IL1ra: recombinant human IL-1 receptor antagonist (Amgen)
reversal of IL1β/TNFα-induced IL32γ gene expression in Hka ([2]; qRT-PCR, FIG. 36): reversed

Substance: rhuIL-1β: recombinant human IL-1β (R&D Systems) used as inflammatory stimulus
induction of cytoplasmic IL-32γ in Hka ([2]; ECL, cell lysates, +48 hours culture): induced highly significant (P<0.001) levels
